Reference: the DeepSol protein solubility set

Experiment: soluble on expression in E. coli; label from the status in PepcDB or PDB records

Row | Sequence | soluble on expression in E. coli
1 | MAAPAALKRISATVWELPVSYKKGMLVPARIIATEKLINAMDAGVFEQVSNVACLPGIQKYAFCMPDGHWGYGFPIGGLAAMDPETGVISPGGIGFDINCGMRLVLTTLTYEEVKPRLRELVDALFYRVPAGVGSHGFVRLSHDEFCRVAEQGSSWCLKHGYAWPEDLEMTEEHGCFTGADATKVSQRAVDRGYNQIGTLGSGNHYLEVQVARPENIFDEDTARAFGITVPNQVVIMFHCGSRGFGHQVATDYLQLFLSVMEKKYGIRTNDRELACAPFRSREGQDYFAAMKCAVNMAFANRQVILHRIREVFSDVFGRDPGDLGMDMVYDVAHNTAKLETHLVDGKKRELLVHRKGATRAFGPGMEGIPARYRETGQPVIIGGSMETGSYLLAGDPGGGDTFFTTAHGSGRTMSRHQAKKLIKGQKLQRDMEERGIYVRTASWGGLAEEAGQAYKNIDDVAEATELSHLSRRVARLVPIGNVKGLEHHHHHH | not soluble
2 | GPGSMSVTIYGIKNCDTMKKARIWLEDHGIDYTFHDYKKEGLDAETLDRFLKTVPWEQLLNRAGTTFRKLPEDVRSNVDAASARELMLAQPSMVKRPVLERDGKLMVGFKPAQYEAYFKL | soluble
3 | MGHHHHHHSHMKMGYEEVSQKFTSIRRVRGDNYCALRATLFQAMSQAVGLPPWLQDPELMLLPEKLISKYNWIKQWKLGLKFDGKNEDLVDKIKESLTLLRKKWAGLAEMRTAEARQIACDELFTNEAEEYSLYEAVKFLMLNRAIELYNDKEKGKEVPFFSVLLFARDTSNDPGQLLRNHLNQVGHTGGLEQVEMFLLAYAVRHTIQVYRLSKYNTEEFITVYPTDPPKDWPVVTLIAEDDRHYNIPVRVCEETSL | soluble
4 | MGLMKKFRDYFLEEDYEDYDEEYEAPQPEEEAPPKTAGKANVVSLQSVQKSAKVVLAEPRVYAEAQEIADHLKSRRAVIVNLQRIQHEQAKRIVDFLSGTVYAIGGDIQQVGTKIFLCTPENVDVSGSISLDGEDDRPMKRW | not soluble
5 | MKFTPPPASLRNPLIIPEKIMMGPGPSNCSKRVLTAMTNTVLSNFHAELFRTMDEVKDGLRYIFQTENRATMCVSGSAHAGMEAMLSNLLEEGDRVLIAVNGIWAERAVEMSERYGADVRTIEGPPDRPFSLETLARAIELHQPKCLFLTHGDSSSGLLQPLEGVGQICHQHDCLLIVDAVASLCGVPFYMDKWEIDAVYTGAQKVLGAPPGITPISISPKALDVIRNRRTKSKVFYWDLLLLGNYWGCYDEPKRYHHTVASNLIFALREALAQIAEEGLENQIKRRIECAQILYEGLGKMGLDIFVKDPRHRLPTVTGIMIPKGVDWWKVSQYAMNNFSLEVQGGLGPTFGKAWRVGIMGECSTVQKIQFYLYGFKESLKATHPDYIFEESNGFH | soluble
6 | GMKEDTIEIAGFHAHVYFDAASRDVAARVREGLGARFEVQLGRWFDKPIGPHPKGMYQVAFLPNQFDKVVPWLMLNREGLDILVHPETGDAVSDHAVYSLWLGAALALNIEFLRQLSSTSSN | soluble
7 | MMTKTQINKLIKMMNDLDYPFEAPLKESFIESIIQIEFNSNSTNCLEKLCNEVSILFKNQPDYLTFLRAMDGFEVNGLRLFSLSIPEPSVKNLFAVNEFYRNNDDFINPDLQERLVIGDYSISIFTYDIKGDAANLLILEHHHHHH | not soluble
8 | MAHHHHHHMNLIVHDLDFMKRILLNDERKWGEESAPGEGRTESSHQPKIITIVLNNTLCAHSAKFIANSDVLICADGGANRLYNLCQSLATERGAIDDEGSSLKGEEDKNTALHASHTNERSHHVSGRHTISDLFNMPVEKKEKALKRPTEIVPHIICGDFDSINAHVYSYYKNKSVIFEKCANQENTDLDKCIDVIRGYIRTNDKILILGATGNRFDHTCANISCLYKNASLNSLYLIGENNFLFLLQQGSHIIHVSPDVFCKGCGILPFGGKCTIKTEGLKYNLNDECLSFDTLISSSNEVVQREVKIFNDSPVVWSAQLI | not soluble
9 | MRNIAEAYFQNMVETATPLEQIILLYDKAIECLERAIEIYDQVNELEKRKEFVENIDRVYDIISALKSFLDHEKGKEIAKNLDTIYTIILNTLVKVDKTKEELQKILEILKDLREAWEEVKKKVHHHHHH | soluble
10 | MGSDKIHHHHHHMSDIIDEVISSFKTSSIFINREYLLPDYIPDELPHREDQIRKIASILAPLYREEKPNNIFIYGLTGTGKTAVVKFVLSKLHKKFLGKFKHVYINTRQIDTPYRVLADLLESLDVKVPFTGLSIAELYRRLVKAVRDYGSQVVIVLDEIDAFVKKYNDDILYKLSRINSEVNKSKISFIGITNDVKFVDLLDPRVKSSLSEEEIIFPPYNAEELEDILTKRAQMAFKPGVLPDNVIKLCAALAAREHGDARRALDLLRVSGEIAERMKDTKVKEEYVYMAKEEIERDRVRDIILTLPFHSKLVLMAVVSISSEENVVSTTGAVYETYLNICKKLGVEAVTQRRVSDIINELDMVGILTAKVVNRGRYGKTKEIGLAVDKNIIVRSLIESDSRFADLWS | not soluble
11 | MGSDKIHHHHHHMFREDRKGLIVVEVENQDLIKTIQVKFPRLSKGQKLIAEYILKHYDKAAFLTAAKLGSSVGVSESTVVRFANELGFSGYPKLQKALQELIKNKLTTVQRIELSNDFIDQESTLKSVLKSDMENIRYTLEKINHKTFDDVVDSIFSAKRIYILGLRSSTPIAEFLGFYLNLILDNAKIISYGVSDIFEQMMNVAKGDLVIGIGFPRYAARTIEALDYAQNNEATVVAITDSLLSPLAARANHTLIAQSNMASFVDSLVAPLSVVNALIIAVGLREKDKISSTFSKLEHIWQEYEVYSYKERRRD | not soluble
12 | DLVPQIIWTGSSDGFIDYYNKRWYEYTGFDGKAFGDKSWVPVMHPDDVQEVLDCWYGSVKKGTPYQIELRMKSAETGEYRWFLSKALPIKDKTGVITKWFGTCTDI | not soluble
13 | MTKTRRRGAELENAIYQAARDILNQDGLEQLTFANVAEQAGTSKPVIYRRWRSPLELAIAAIQDQIITENHGQLDEVSLTGQTLSEDLFQVLKRFTVSINTFNQALVITWFHHLDQQANPEVKDLLNAVKKIDAHAIERVCQRAQQRGELRTGTLSCDLQLMPFDWLRYRAFANEPITDATLHLLVDDLLVPAYQHALG | not soluble
14 | ATHEVHMLNKGESGAMVFEPAFVRAEPGDVINFVPTDKSHNVEAIKEILPEGVESFKSKINESYTLTVTEPGLYGVKCTPHFGMGMVGLVQVGDAPENLDAAKTAKMPKKARERMDAELAQVN | soluble
15 | MKHHHHHHPMGHMQTLIFLDLEATGLPSSRPEVTELCLLAVHRRALENTSISQGHPPPVPRPPRVVDKLSLCIAPGKACSPGASEITGLSKAELEVQGRQRFDDNLAILLRAFLQRQPQPCCLVAHNGDRYDFPLLQTELARLSTPSPLDGTFCVDSIAALKALEQASSPSGNGSRKSYSLGSIYTRLYWQAPTDSHTAEGDVLTLLSICQWKPQALLQWVDEHARPFSTVKPMYGTPATTGTTNLR | soluble
16 | MDVYHDGACPEVKPVDNFDWSQYHGKWWEVAKYPSPNGKYGKCGWAEYTPEGKSVKVSRYDVIHGKEYFMEGTAYPVGDSKIGKIYHSRTVGGYTKKTVFNVLSTDNKNYIIGYSCRYDEDKKGHWDHVWVLSRSMVLTGEAKTAVENYLIGSPVVDSQKLVYSDFSEAACKVNNSNWSHPQFEK | soluble
17 | MVVDTEYYDLLGVSTTASSIEIKKAYRKKSIQEHPDKNPNDPTATERFQAISEAYQVLGDDDLRAKYDKYGRKEAIPQGGFEDAAEQFSVIFGGDAFASYIGELMLLKNLQKTEELNAEDEAEKEKENVETMEESPADGKTNGTTNAVDAALGNTNEKDDKNKARTTSGNLTVHDGNKKNEQVGAEAKKKKTKLEQFEEEQEVEKQKRVDQLSKTLIERLSILTESVYDDACKDSFKKKFEEEANLLKMESFGLDILHTIGDVYYEKAEIFLASQNLFGMGGIFHSMKAKGGVFMDTLRTVSAAIDAQNTMKELEKMKEASTNNGPLFDKDGNEQIKPTTEELAQQEQLLMGKVLSAAWHGSKYEITSTLRGVCKKVLEDDSVSKKTLIRRAEAMKLLGEVFKKTFRTKVEQEEAQIFEELVAEATKKKRHT | not soluble
18 | MGSDKIHHHHHHMVEKLKPRYSVVWTNKIAEVPQNAWNALAMPLKTPFLEWEWLNNLETSQSATAKTGWLPNHLTLWRDRTLIAAAPLYLKGHSSGEFVFDHQWAELADRIGVQYYPKLLGMTPFTPAEGYRFLIAPGEDEDEITAMMVHEIDTFCSKNRISGCHFLYVDPQWRPMLERHGFTTWLHHSYVWENAGFKTFDDYLKVFNANQRRNIKRERKAVEKAGLRLQPLSGDEIPYSLFPSMYQFYADTCDKFGWWGSKYLTQRFFEQLHNDYRHRVLFVAAYSEEDNSHPLGMSFCLFKGDKLYGRYWGSFQEIDCLHFDACYYAPIEWAIANGIQIFDPGAGGRHKKRRGFPAMPNHSLHRFYNNRLGQIIRPYIKEVNQLEQQEIEAINAELPFSNRDS | not soluble
19 | MSTTDDTHNTLSTGKCPFHQGGHDRSAGAGTASRDWWPNQLRVDLLNQHSNRSNPLGEDFDYRKEFSKLDYSALKGDLKALLTDSQPWWPADWGSYVGLFIRMAWHGAGTYRSIDGRGGAGRGQQRFAPLNSWPDNVSLDKARRLLWPIKQKYGQKISWADLFILAGNVALENSGFRTFGFGAGREDVWEPDLDVNWGDEKAWLTHRHPEALAKAPLGATEMGLIYVNPEGPDHSGEPLSAAAAIRATFGNMGMNDEETVALIAGGHTLGKTHGAAAASHVGADPEAAPIEAQGLGWASSYGSGVGADAITSGLEVVWTQTPTQWSNYFFENLFKYEWVQTRSPAGAIQFEAVDAPDIIPDPFDPSKKRKPTMLVTDLTLRFDPEFEKISRRFLNDPQAFNEAFARAWFKLTHRDMGPKARYIGPEVPKEDLIWQDPLPQPLYQPTQEDIINLKAAIAASGLSISEMVSVAWASASTFRGGDKRGGANGARLALAPQRDWDVNAVAARVLPVLEEIQKTTNKASLADIIVLAGVVGIEQAAAAAGVSISVPFAPGRVDARQDQTDIEMFSLLEPIADGFRNYRARLDVSTTESLLIDKAQQLTLTAPEMTVLVGGMRVLGTNFDGSQNGVFTDRPGVLSTDFFANLLDMRYEWKPTDDANELFEGRDRLTGEVKYTATRADLVFGSNSVLRALAEVYACSDAHEKFVKDFVAAWVKVMNLDRFDLQ | not soluble
20 | MGSDKIHHHHHHMRNPPFIVEYELTLRCNFRCKHCYCEAGKPHLEELSFEEIKELILDMKELGTWALDIVGGEPLLHPQILDILAFGKEVGQRLMINTNGSLATKEMVQKIKKANPDVLIGVSLEGPDPETNDFVRGTGNFKRAVQGIKNFVDEGFQVTILNVINKRNWRKFEDMVKLALELGVNALYVDRFIPVGRGMIHARELDMNPEEWRVAIKHVLGVIENYKNHLTFYVEESISGKPCSAGITHASVLADGTVVPCGHFRYRKEFYMGNVREKKFSEIWHEYTPIPSPASCQQCPILNECGGGCKAYYLLREHEKDEAICFLNKERYNIK | not soluble
21 | MWRRHYKLVPQIDTRDCGPAVLASVAKHYGSNYSIAYLRELSKTNKQGTTALGIVEAAKKLGFETRSIKADMTLFDYNDLTYPFIVHVIKGKRLQHYYVVYGSQNNQLIIGDPDPSVKVTRMSKERFQSEWTGLAIFLAPQPNYKPHKGEHHHHHH | soluble
22 | MGSDKIHHHHHHMQDLNDLSLFAQVVEHGSFSAASRATGIPKSRLSRRIAQLERDLGVQLLRRTTRQVRVTPLGESYYERCRAMLKEAEAAHEVIEQARDQPGGTLRVSCPVAIAQILLAPAIGHFMRANPAVRIELEATNRRVDVIGEGYDLSLRVRDVLEDSSLAVRTFGESQLMLVASPGLLDSIGRPRTPQALDGMPGVGQKPHDGKHVWVLGCKSGETIQIAYDPRLVTDEFSLLREAAIAGIGVAMLPRMYCRDAIDAGELELLLPQWEMPVGTLHAVFPSRKGVTPAVRRFLDFLSEILPENARKVGMHEPRQPAMHRAV | not soluble
